Article PMC11964265
“And” between values parts separate entries of the source, which are not always exact repeats. Equal values may be shown once.

Key:
[1] = biological target: Naegleria fowleri cystatin (recombinant, without signal presequence) (Naegleria fowleri (strain HB-1)); experiment: SEC; analytical size-exclusion chromatography, Superdex 200 Increase 10/300 GL, 20 mM Tris-HCl, 150 mM NaCl, pH 7.5; mass from calibration with Gel Filtration Standard (Bio-Rad)
[2] = biological target: Cathepsin L holoenzyme from human liver (human)
Chain of Cathepsin L holoenzyme from human liver (human) (P07711 18-333): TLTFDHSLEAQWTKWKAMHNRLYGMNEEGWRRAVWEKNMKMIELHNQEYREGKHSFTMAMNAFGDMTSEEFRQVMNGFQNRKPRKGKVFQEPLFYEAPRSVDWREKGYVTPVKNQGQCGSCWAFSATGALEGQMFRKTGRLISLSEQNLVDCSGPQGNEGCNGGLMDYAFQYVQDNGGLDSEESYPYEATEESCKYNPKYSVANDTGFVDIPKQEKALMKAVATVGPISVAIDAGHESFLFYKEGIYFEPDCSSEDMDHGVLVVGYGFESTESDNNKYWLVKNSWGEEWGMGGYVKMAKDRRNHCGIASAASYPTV

[3] = biological target: Recombinant human cathepsin K holoenzyme (human) (UniProt P43235)
Chain of Recombinant human cathepsin K holoenzyme (human) (P43235 16-329): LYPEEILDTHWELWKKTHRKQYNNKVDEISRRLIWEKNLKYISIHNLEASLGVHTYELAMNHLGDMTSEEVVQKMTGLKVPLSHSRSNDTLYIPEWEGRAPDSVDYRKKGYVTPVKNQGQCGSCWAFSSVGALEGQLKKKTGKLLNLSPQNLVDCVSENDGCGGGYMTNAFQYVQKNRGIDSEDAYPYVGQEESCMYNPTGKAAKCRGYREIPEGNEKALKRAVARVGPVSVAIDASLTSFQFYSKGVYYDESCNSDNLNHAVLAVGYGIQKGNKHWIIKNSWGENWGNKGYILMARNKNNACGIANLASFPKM

For “Naegleria fowleri cystatin (recombinant, without signal presequence) (natural protein)”, the stoichiometry N [1] was 4 and 2, the IC50 of inhibition of peptidase activity (Z-Phe-Arg-AMC cleavage), 50 nM enzyme, 5 nM – 2 µM Nf cystatin, pH 5.5 [2] was 517 nM and the IC50 of inhibition of peptidase activity (Z-Phe-Arg-AMC cleavage), 50 nM enzyme, 5 nM – 2 µM Nf cystatin, pH 5.5 [3] was 31 nM.
